In publication PMC9187739, “MIF homolog d-dopachrome tautomerase (D-DT/MIF-2) does not inhibit accumulation and toxicity of misfolded SOD1” (Scientific Reports, 2022):

Biological target: T1, human SOD1^G93A (Zn/Cu superoxide dismutase, glycine to alanine at position 93) (human, UniProt P00441 1-154, G93A)
T1 construct: Zn/Cu superoxide dismutase (SOD1), human, with the ALS-linked mutation G93A; The introduction calls SOD1 a 32 kDa homodimer; also called mutant SOD1^G93A; mutant SOD1; source: E. coli BL-21, grown without Zn2+ and Cu2+ supplements, purified to homogeneity under non-denaturing conditions
T1 sequence (P00441 whole entry G94A): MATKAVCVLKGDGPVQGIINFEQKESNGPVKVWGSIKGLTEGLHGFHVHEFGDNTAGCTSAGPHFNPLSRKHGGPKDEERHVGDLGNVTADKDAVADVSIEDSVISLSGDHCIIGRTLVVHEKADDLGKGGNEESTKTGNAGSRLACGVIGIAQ
Test: co-IP; purified SOD1^G93A (2 µg) incubated with recombinant D-DT (0.2, 0.5, 1, 2, 5 and 10 µg); immunoprecipitation overnight at 4 °C with B8H10 antibody (misfolded SOD1) crosslinked to protein G Dynabeads; IP buffer 0.05 M Tris pH 7.4, 0.4 M NaCl, 0.5% Nonidet P-40; bound and unbound fractions immunoblotted for SOD1 and D-DT
Conditions: both partners purified

B1: recombinant human D-dopachrome tautomerase (D-DT/MIF-2) (enzyme)
chain: PFLELDTNLPANRVPAGLEKRLCAAAASILGKPADRVNVTVRPGLAMALSGSTEPCAQLSISSIGVVGTAEDNRSHSAHFFEFLTKELALGQDRILIRFFPLESWQIGKIGTVMTFL
notes: D-dopachrome tautomerase (D-DT, MIF-2), human; also called recombinant D-DT; source: recombinant
binding result: binds
